Here are results for one sequence from publication PMC3068679.

Data set [1] has as its target T1, MBP-Rv3124-His6 (MoaR1) (Mycobacterium tuberculosis (gDNA; strain H37Rv?)) (UniProt O05797).
T1 sequence: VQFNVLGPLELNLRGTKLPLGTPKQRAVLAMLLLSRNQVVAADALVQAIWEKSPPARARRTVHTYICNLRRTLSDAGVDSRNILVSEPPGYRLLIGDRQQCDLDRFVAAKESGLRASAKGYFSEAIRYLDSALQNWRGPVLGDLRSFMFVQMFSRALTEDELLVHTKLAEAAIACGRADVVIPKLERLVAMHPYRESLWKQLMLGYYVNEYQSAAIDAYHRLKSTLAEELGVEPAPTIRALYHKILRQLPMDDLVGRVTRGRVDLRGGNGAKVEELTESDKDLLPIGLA
Description: EMSA.

Data set [2] has as its target T1, MBP-Rv3124-His6 (MoaR1) (Mycobacterium tuberculosis (gDNA; strain H37Rv?)). Description: competition.

Turning to “ATGGAGCTACCATATCAGGCAGCGTAGGCGTACTCATTTTCCTATCATCTTTTCGATCCTCCACTTTGGACGCAGTCGGTTAGAGCGCCTCAAGAGAGTTTCGTACAAGGGTTAACTAACAATCGTTACCGAAATGCATCGGCGCATCGTGGCGCAGCGCATGAGCCTGCGTTTATGGCGCGTTGTTAGGGCGGAATCCGACCACTCATGTGCGAGCTTTCGTT (double strand) [Rv3109pro (222 bp)]”, the binding result in data set [1] and in data set [2] was “binds” throughout.
